According to patent EP4674870A1 (Sunshine Guojian Pharmaceutical (Shanghai) Co., Ltd., dated 2026):

T1: human TL1A-His protein (human, UniProt O95150 72-251)
T1 construct: also called human TL1A extracellular domain (TL1A-ECD) with 6×His tag
T1 sequence: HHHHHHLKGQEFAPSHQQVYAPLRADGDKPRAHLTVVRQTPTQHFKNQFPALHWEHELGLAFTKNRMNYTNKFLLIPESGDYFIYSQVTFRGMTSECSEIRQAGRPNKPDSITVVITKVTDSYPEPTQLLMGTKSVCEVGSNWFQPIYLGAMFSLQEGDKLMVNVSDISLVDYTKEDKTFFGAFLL


molecular target: T1, human TL1A-His protein; assay: ELISA

Row | Molecule | binding result
1 | 311V25 (antibody, human IgG1, kappa, L234A L235A, V domains shown) VH: EVQLVESGGGLVQPGGSLKLSCAASGFTFSNYWMNWVRQASGKGLEWVGGIRLKSNNYATQYAESVKGRFTISRDDSKNTAYLQMNSLKTEDTAVYYCTPLLLNGMDYWGQGTTVTVSS VL: EIVLTQSPDFQSVTPKEKVTITCSASSSVSYMHWYQQKPDQSPKLWIYDTSNLASGVPSRFSGSGSGTDFTLTINSLEAEDAATYYCFQESGYPFTFGQGTKLEIKR | binds
2 | 311V34-7 (antibody, human IgG1, kappa, L234A L235A, V domains shown) VH: EVQLVESGGGLVQPGGSLKLSCAASGFTFSNYWMNWVRQASGKGLEWVGGIRLKSNNYRTQYAESVKGRFTISRDDSKNTAYLQMNSLKTEDTAVYYCTPLLLSGMDYWGQGTTVTVSS VL: EIVLTQSPDFQSVTPKEKVTITCSASSSVSYMHWYQQKPDQSPKLWIYDTSNLASGVPSRFSGSGSGTDFTLTINSLEAEDAATYYCFQESGYPFTFGQGTKLEIKR | binds
3 | 311V31-7 (antibody, human IgG1, kappa, L234A L235A, V domains shown) VH: EVQLVESGGGLVQPGGSLKLSCAASGFTFSNYWMNWVRQASGKGLEWVGGIRLKSNNYKTQYAESVKGRFTISRDDSKNTAYLQMNSLKTEDTAVYYCTPLLLSGMDYWGQGTTVTVSS VL: EIVLTQSPDFQSVTPKEKVTITCSASSSVSYMHWYQQKPDQSPKLWIYDTSNLASGVPSRFSGSGSGTDFTLTINSLEAEDAATYYCFQESGYPFTFGQGTKLEIKR | binds

Results, then the molecule that gave them:

Row | binding result | Molecule
4 | binds | 311V31 (antibody, human IgG1, kappa, L234A L235A, V domains shown) VH: EVQLVESGGGLVQPGGSLKLSCAASGFTFSNYWMNWVRQASGKGLEWVGGIRLKSNNYKTQYAESVKGRFTISRDDSKNTAYLQMNSLKTEDTAVYYCTPLLLNGMDYWGQGTTVTVSS VL: EIVLTQSPDFQSVTPKEKVTITCSASSSVSYMHWYQQKPDQSPKLWIYDTSNLASGVPSRFSGSGSGTDFTLTINSLEAEDAATYYCFQESGYPFTFGQGTKLEIKR
5 | binds | 311V25-7 (antibody, human IgG1, kappa, L234A L235A, V domains shown) VH: EVQLVESGGGLVQPGGSLKLSCAASGFTFSNYWMNWVRQASGKGLEWVGGIRLKSNNYATQYAESVKGRFTISRDDSKNTAYLQMNSLKTEDTAVYYCTPLLLSGMDYWGQGTTVTVSS VL: EIVLTQSPDFQSVTPKEKVTITCSASSSVSYMHWYQQKPDQSPKLWIYDTSNLASGVPSRFSGSGSGTDFTLTINSLEAEDAATYYCFQESGYPFTFGQGTKLEIKR
6 | binds | 311V34 (antibody, human IgG1, kappa, L234A L235A, V domains shown) VH: EVQLVESGGGLVQPGGSLKLSCAASGFTFSNYWMNWVRQASGKGLEWVGGIRLKSNNYRTQYAESVKGRFTISRDDSKNTAYLQMNSLKTEDTAVYYCTPLLLNGMDYWGQGTTVTVSS VL: EIVLTQSPDFQSVTPKEKVTITCSASSSVSYMHWYQQKPDQSPKLWIYDTSNLASGVPSRFSGSGSGTDFTLTINSLEAEDAATYYCFQESGYPFTFGQGTKLEIKR

molecular target: T1, human TL1A-His protein; assay: SPR (Biacore 8K), antibody captured on Protein A chip, TL1A-his as analyte

Row | Kd | koff | kon | Molecule
7 | 0.537 nM | 0.000166 s⁻¹ | 308000 M⁻¹ s⁻¹ | positive control antibody PRA023
8 | 0.212 nM | 0.000212 s⁻¹ | 1e+06 M⁻¹ s⁻¹ | humanized antibody 72851 (antibody, human IgG1, kappa, L234A L235A, V domains shown, Humanized from 728H4D9; human IgG1/kappa) VH: QVQLVQSGAEVKKPGASVKVSCKASGYSFTGYTMNWVRQAPGQNLEWIGLINPYSGGTNYNQKFKGRATLTVDTSISTAYMELSRLRSDDTAVYYCASIYQRHDGIAYWGQGTLVTVSS VL: EIVLTQSPDFQSVTPKEKVTITCSASSSVNYMHWYQQKPDQSPKLLIKDTSKLASGVPSRFSGSGSGTDFTLTINSLEAEDAATYYCQQWSSSPYTFGGGTKVEIKR
9 | 0.394 nM | 0.000159 s⁻¹ | 405000 M⁻¹ s⁻¹ | humanized antibody 31122 (antibody, human IgG1, kappa, L234A L235A, V domains shown, Humanized from 311C9E10; human IgG1/kappa) VH: EVQLVESGGGLVQPGGSLKLSCAASGFTFSNYWMNWVRQASGKGLEWVGGIRLKSNNYTTQYAESVKGRFTISRDDSKNTAYLQMNSLKTEDTAVYYCTPLLLNGMDYWGQGTTVTVSS VL: EIVLTQSPDFQSVTPKEKVTITCSASSSVSYMHWYQQKPDQSPKLWIYDTSNLASGVPSRFSGSGSGTDFTLTINSLEAEDAATYYCFQESGYPFTFGQGTKLEIKR
